The source of these data is the supplement of paper PMC9112550, “Optimization of the antimicrobial peptide Bac7 by deep mutational scanning” (BMC Biology, 2022).

The test system of the data set is Escherichia coli TOP10. Put plainly: shrunken log2 fold change of peptide-encoding DNA abundance (4.5 h post-induction vs induction); higher = less antimicrobial activity (less host growth inhibition). The conditions noted are these: time post-induction: 4.5 h; library: site-saturation at positions 5, 18, 19, 20.
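Also: peptides expressed intracellularly from a pBAD plasmid library in pooled LB shake-flask culture, induced with 0.3% L-arabinose, DNA abundance read by NGS, three biological replicates, DESeq2 with apeglm shrinkage.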

With RRIRLRPPRLPRPRPRPHYDPRP, the “shrunken log2 fold change” value was -0.0502.

RRIRKRPPRLPRPRPRPTRAPRP: the “shrunken log2 fold change” value was found to be 1.2.

Consider RRIRLRPPRLPRPRPRPFQVPRP, for which the “shrunken log2 fold change” value is -0.0146.

As for RRIRLRPPRLPRPRPRPERAPRP, the “shrunken log2 fold change” value was 0.705.

Consider RRIRGRPPRLPRPRPRPISVPRP, for which the “shrunken log2 fold change” value is -0.0351.

RRIRRRPPRLPRPRPRPTISPRP: the “shrunken log2 fold change” value was -0.28.

Consider RRIRNRPPRLPRPRPRPNKEPRP, for which the “shrunken log2 fold change” value is -0.0761.

On to RRIRNRPPRLPRPRPRPKYQPRP, for which the “shrunken log2 fold change” value was -0.0997.

With RRIRGRPPRLPRPRPRPANRPRP, the “shrunken log2 fold change” value was determined as 0.0838.

On to RRIRKRPPRLPRPRPRPLNWPRP, for which the “shrunken log2 fold change” value was 0.0951.

Turning to RRIRLRPPRLPRPRPRPCMCPRP, the “shrunken log2 fold change” value is -0.967.

Consider RRIRHRPPRLPRPRPRPKHDPRP, for which the “shrunken log2 fold change” value is -0.363.

As to RRIRRRPPRLPRPRPRPFFEPRP, the “shrunken log2 fold change” value turned out to be 0.18.

With RRIRDRPPRLPRPRPRPVEYPRP, the “shrunken log2 fold change” value is 0.0163.

On to RRIRTRPPRLPRPRPRPIADPRP, for which the “shrunken log2 fold change” value is -0.0123.

Turning to RRIRFRPPRLPRPRPRPCPHPRP, the “shrunken log2 fold change” value is -0.135.

Regarding RRIRKRPPRLPRPRPRPRIMPRP, the “shrunken log2 fold change” value is 0.0472.

Consider RRIRSRPPRLPRPRPRPFEVPRP, for which the “shrunken log2 fold change” value is -0.109.

As for RRIRGRPPRLPRPRPRPAFGPRP, the “shrunken log2 fold change” value stood at 0.476.

In the case of RRIRWRPPRLPRPRPRPGFFPRP, the “shrunken log2 fold change” value came to 0.26.

Consider RRIRKRPPRLPRPRPRPPCVPRP, for which the “shrunken log2 fold change” value was determined as 0.443.

Regarding RRIRVRPPRLPRPRPRPAAMPRP, the “shrunken log2 fold change” value stood at 0.347.

In the case of RRIRFRPPRLPRPRPRPHNHPRP, the “shrunken log2 fold change” value was -0.835.

On to RRIRDRPPRLPRPRPRPGVDPRP, for which the “shrunken log2 fold change” value was determined as 1.36.

RRIRHRPPRLPRPRPRPRYNPRP: the “shrunken log2 fold change” value is -0.591.

On to RRIRKRPPRLPRPRPRPPVDPRP, for which the “shrunken log2 fold change” value is 0.0616.

For RRIRHRPPRLPRPRPRPAMYPRP, the “shrunken log2 fold change” value is -0.0134.

Take RRIRCRPPRLPRPRPRPGEHPRP: the “shrunken log2 fold change” value was -0.0986.

Consider RRIRWRPPRLPRPRPRPSELPRP, for which the “shrunken log2 fold change” value amounted to 0.0129.

Take RRIRWRPPRLPRPRPRPRQEPRP: the “shrunken log2 fold change” value was found to be 0.0591.

Consider RRIRLRPPRLPRPRPRPGMDPRP, for which the “shrunken log2 fold change” value came out at 0.126.

Take RRIRRRPPRLPRPRPRPDGMPRP: the “shrunken log2 fold change” value stood at 0.0388.

As to RRIRVRPPRLPRPRPRPMQYPRP, the “shrunken log2 fold change” value was -0.324.

Consider RRIRARPPRLPRPRPRPRENPRP, for which the “shrunken log2 fold change” value came out at 1.06.

With RRIRWRPPRLPRPRPRPISEPRP, the “shrunken log2 fold change” value was 0.00628.

For the sequence RRIRLRPPRLPRPRPRPMRMPRP, the “shrunken log2 fold change” value is -0.076.

Regarding RRIRWRPPRLPRPRPRPDKFPRP, the “shrunken log2 fold change” value is -0.427.

Take RRIRCRPPRLPRPRPRPFVKPRP: the “shrunken log2 fold change” value is -0.4.

For RRIRKRPPRLPRPRPRPNHKPRP, the “shrunken log2 fold change” value is -0.203.

As for RRIRARPPRLPRPRPRPMYPPRP, the “shrunken log2 fold change” value is -0.79.

Consider RRIRDRPPRLPRPRPRPNFLPRP, for which the “shrunken log2 fold change” value was -0.277.

Turning to RRIRMRPPRLPRPRPRPQPQPRP, the “shrunken log2 fold change” value was 0.717.

RRIRLRPPRLPRPRPRPMLCPRP: the “shrunken log2 fold change” value was -0.0499.

Regarding RRIRNRPPRLPRPRPRPNAFPRP, the “shrunken log2 fold change” value is -0.126.

Consider RRIRWRPPRLPRPRPRPPPHPRP, for which the “shrunken log2 fold change” value was 0.721.

For RRIRVRPPRLPRPRPRPIYHPRP, the “shrunken log2 fold change” value was -0.461.

Take RRIRERPPRLPRPRPRPTKGPRP: the “shrunken log2 fold change” value was -0.184.

Take RRIRYRPPRLPRPRPRPKPTPRP: the “shrunken log2 fold change” value came to 0.278.

RRIRERPPRLPRPRPRPVFMPRP: the “shrunken log2 fold change” value is -0.356.

With RRIRSRPPRLPRPRPRPYRRPRP, the “shrunken log2 fold change” value is -0.0841.

Turning to RRIRRRPPRLPRPRPRPMRMPRP, the “shrunken log2 fold change” value turned out to be 0.119.

Consider RRIRDRPPRLPRPRPRPMPFPRP, for which the “shrunken log2 fold change” value was 0.00571.

On to RRIRCRPPRLPRPRPRPTWYPRP, for which the “shrunken log2 fold change” value was -0.28.

On to RRIRRRPPRLPRPRPRPYHSPRP, for which the “shrunken log2 fold change” value is -0.017.

Consider RRIRSRPPRLPRPRPRPWDHPRP, for which the “shrunken log2 fold change” value was -0.143.

Regarding RRIRNRPPRLPRPRPRPFDLPRP, the “shrunken log2 fold change” value was -0.176.

RRIRIRPPRLPRPRPRPAGWPRP: the “shrunken log2 fold change” value came out at 0.582.

As to RRIRSRPPRLPRPRPRPSYCPRP, the “shrunken log2 fold change” value is -1.07.

Consider RRIRNRPPRLPRPRPRPPGSPRP, for which the “shrunken log2 fold change” value is -0.123.

As to RRIRARPPRLPRPRPRPAHLPRP, the “shrunken log2 fold change” value was determined as 0.271.

Regarding RRIRFRPPRLPRPRPRPWWKPRP, the “shrunken log2 fold change” value turned out to be 0.0472.

As to RRIRDRPPRLPRPRPRPFHKPRP, the “shrunken log2 fold change” value was -0.0864.

Take RRIRDRPPRLPRPRPRPSIYPRP: the “shrunken log2 fold change” value was -0.313.

On to RRIRDRPPRLPRPRPRPTVLPRP, for which the “shrunken log2 fold change” value was determined as 0.306.

Regarding RRIRCRPPRLPRPRPRPDCVPRP, the “shrunken log2 fold change” value was 0.184.

Take RRIRTRPPRLPRPRPRPWRIPRP: the “shrunken log2 fold change” value stood at 0.025.

RRIRQRPPRLPRPRPRPTMGPRP: the “shrunken log2 fold change” value is -0.0283.

In the case of RRIRYRPPRLPRPRPRPCQAPRP, the “shrunken log2 fold change” value was -0.269.

Turning to RRIRNRPPRLPRPRPRPGQHPRP, the “shrunken log2 fold change” value is 0.128.

Consider RRIRWRPPRLPRPRPRPRNHPRP, for which the “shrunken log2 fold change” value is -0.141.

For the sequence RRIRVRPPRLPRPRPRPIIAPRP, the “shrunken log2 fold change” value was -0.195.

For the sequence RRIRDRPPRLPRPRPRPFKMPRP, the “shrunken log2 fold change” value was -0.0853.

On to RRIRGRPPRLPRPRPRPNFCPRP, for which the “shrunken log2 fold change” value came out at 0.362.

For RRIRSRPPRLPRPRPRPFGDPRP, the “shrunken log2 fold change” value is -0.0872.

Turning to RRIRERPPRLPRPRPRPWCIPRP, the “shrunken log2 fold change” value is -1.84.

Regarding RRIRSRPPRLPRPRPRPQCGPRP, the “shrunken log2 fold change” value is -0.129.

RRIRVRPPRLPRPRPRPVLVPRP: the “shrunken log2 fold change” value is -0.311.

On to RRIRWRPPRLPRPRPRPHTMPRP, for which the “shrunken log2 fold change” value was -0.00694.

With RRIRSRPPRLPRPRPRPSDIPRP, the “shrunken log2 fold change” value is -0.516.

For RRIRTRPPRLPRPRPRPAQDPRP, the “shrunken log2 fold change” value was determined as 0.111.

Regarding RRIRGRPPRLPRPRPRPFTLPRP, the “shrunken log2 fold change” value is -0.109.

As to RRIRARPPRLPRPRPRPRTKPRP, the “shrunken log2 fold change” value worked out at 0.565.

For the sequence RRIRLRPPRLPRPRPRPTCYPRP, the “shrunken log2 fold change” value was -0.371.

As for RRIRRRPPRLPRPRPRPHAEPRP, the “shrunken log2 fold change” value was 0.317.

In the case of RRIRRRPPRLPRPRPRPYQVPRP, the “shrunken log2 fold change” value was -0.0648.

With RRIRIRPPRLPRPRPRPMDHPRP, the “shrunken log2 fold change” value was -0.0898.

Consider RRIRKRPPRLPRPRPRPWGCPRP, for which the “shrunken log2 fold change” value was 0.131.

As to RRIRARPPRLPRPRPRPWKYPRP, the “shrunken log2 fold change” value was -0.408.

On to RRIRARPPRLPRPRPRPHVNPRP, for which the “shrunken log2 fold change” value is -0.467.

In the case of RRIRTRPPRLPRPRPRPMNEPRP, the “shrunken log2 fold change” value is -0.172.

Consider RRIRKRPPRLPRPRPRPCDWPRP, for which the “shrunken log2 fold change” value is -0.0282.

RRIRVRPPRLPRPRPRPNGQPRP: the “shrunken log2 fold change” value was determined as 0.0697.

For RRIRKRPPRLPRPRPRPNHWPRP, the “shrunken log2 fold change” value was 0.0915.

RRIRVRPPRLPRPRPRPIHYPRP: the “shrunken log2 fold change” value was -0.137.

For the sequence RRIRMRPPRLPRPRPRPERFPRP, the “shrunken log2 fold change” value was determined as 0.0214.

For RRIRPRPPRLPRPRPRPSAMPRP, the “shrunken log2 fold change” value was 0.0584.

Turning to RRIRTRPPRLPRPRPRPATAPRP, the “shrunken log2 fold change” value is 0.362.

On to RRIRRRPPRLPRPRPRPRIDPRP, for which the “shrunken log2 fold change” value is -0.0185.

RRIRCRPPRLPRPRPRPICIPRP: the “shrunken log2 fold change” value was -0.191.

Take RRIRWRPPRLPRPRPRPYQYPRP: the “shrunken log2 fold change” value is -0.0756.

Turning to RRIRDRPPRLPRPRPRPIMQPRP, the “shrunken log2 fold change” value was -0.0521.

In the case of RRIRYRPPRLPRPRPRPVITPRP, the “shrunken log2 fold change” value is -0.241.

On to RRIRLRPPRLPRPRPRPVLYPRP, for which the “shrunken log2 fold change” value was -0.239.

For the sequence RRIRVRPPRLPRPRPRPFAKPRP, the “shrunken log2 fold change” value is -0.307.

With RRIRLRPPRLPRPRPRPYVYPRP, the “shrunken log2 fold change” value is -0.706.

On to RRIRRRPPRLPRPRPRPRQNPRP, for which the “shrunken log2 fold change” value worked out at 0.419.

As for RRIRSRPPRLPRPRPRPGMPPRP, the “shrunken log2 fold change” value was -0.122.

For RRIRLRPPRLPRPRPRPLARPRP, the “shrunken log2 fold change” value was 0.615.

Turning to RRIRFRPPRLPRPRPRPKPPPRP, the “shrunken log2 fold change” value came out at 1.35.

As for RRIRGRPPRLPRPRPRPKQLPRP, the “shrunken log2 fold change” value was -0.00285.

Consider RRIRRRPPRLPRPRPRPREMPRP, for which the “shrunken log2 fold change” value came out at 0.513.

Consider RRIRKRPPRLPRPRPRPLTMPRP, for which the “shrunken log2 fold change” value is 0.185.

As for RRIRKRPPRLPRPRPRPIQPPRP, the “shrunken log2 fold change” value is -0.00952.

With RRIRSRPPRLPRPRPRPIPRPRP, the “shrunken log2 fold change” value was 0.202.

RRIRQRPPRLPRPRPRPGWVPRP: the “shrunken log2 fold change” value is -0.124.

With RRIRKRPPRLPRPRPRPYCAPRP, the “shrunken log2 fold change” value is -0.254.

For RRIRWRPPRLPRPRPRPLGLPRP, the “shrunken log2 fold change” value is 0.116.

RRIRARPPRLPRPRPRPCASPRP: the “shrunken log2 fold change” value worked out at 0.158.

With RRIRKRPPRLPRPRPRPIIIPRP, the “shrunken log2 fold change” value was -0.104.

Turning to RRIRIRPPRLPRPRPRPDNIPRP, the “shrunken log2 fold change” value is -0.116.

In the case of RRIRWRPPRLPRPRPRPWGMPRP, the “shrunken log2 fold change” value is -0.246.

In the case of RRIRARPPRLPRPRPRPRMLPRP, the “shrunken log2 fold change” value turned out to be 0.395.

As to RRIRGRPPRLPRPRPRPYKAPRP, the “shrunken log2 fold change” value was -0.354.

As to RRIRVRPPRLPRPRPRPKKDPRP, the “shrunken log2 fold change” value was -0.262.

With RRIRKRPPRLPRPRPRPYSTPRP, the “shrunken log2 fold change” value is -0.0551.
